Laboratory results: patent US20190048073A1, “ANTI-GD3 ANTIBODIES AND ANTIBODY-DRUG CONJUGATES” (Pfizer Inc., priority 2017, published 2019)
Where two headings read alike, the source gives them in different places.

Test: Estimation of binding affinity by Octet
Source text: Murine R24 (mR24) is a murine antibody that binds GD3 (SEQ ID NOs: 17 and 19). To minimize the risk of immunogenicity, an attempt was made to humanize mR24 for further therapeutic development. An earlier attempt to humanize mR24 is disclosed in WO2008/101234. The CDRs of murine antibody mR24 were identified using Kabat. Humanization of mR24 was first attempted using the semi-empirical framework shuffle approach. In this approach, human germline frameworks with a high degree of homology with mR24 sequences, VL frameworks V1-12 and V3-11 and VH framework V3-7, were selected. The selected frameworks were then used as the acceptor framework for mR24 without any backmutations in the framework region. The CDRs of mR24 were then inserted into the acceptor frameworks, and antibody proteins were generated and assessed for their expression yield, purification properties, and GD3 target binding activity. After screening, two advanced humanization variants with high GD3 binding activity, overall expression yields, and stability, hAb 21 (SEQ ID NOs: 30 and 31, VL framework V3-11 and VH framework V3-7) and hAb3 (SEQ ID NOs: 32 and 33, VL framework V1-12 and VH framework V3-7), were further evaluated for their aggregation level after purification.

[1] = antibody concentrated (Ab 3 21.2 mg/ml, hAb 21 27.8 mg/ml), in Tier-1 buffer

| Kd [nM] | Kdis [s⁻¹] | Kon [M⁻¹ s⁻¹] | Kd [1] [nM] | Kdis [1] [s⁻¹] | Kon [1] [M⁻¹ s⁻¹] | Kd (antibody dialyzed in PBS) [nM] | Kdis (antibody dialyzed in PBS) [s⁻¹] | Kon (antibody dialyzed in PBS) [M⁻¹ s⁻¹] | Molecule |
| --- | --- | --- | --- | --- | --- | --- | --- | --- | --- |
| 9.02 | 0.00596 | 1.33e+06 | – | – | – | – | – | – | KM871: chR24 (hAb.51) chimeric version (hIgG1, kappa) of KM641 (SEQ ID NOs: 28 and 29) (antibody, V domains shown) VH: EVTLVESGGDFVKPGGSLKVSCAASGFAFSHYAMSWVRQTPAKRLEWVAYISSGGSGTYYSDSVKGRFTISRDNAKNTLYLQMRSLRSEDSAMYFCTRVKLGTYYFDSWGQGTTLTVSS VL: DIQMTQTASSLPASLGDRVTISCSASQDISNYLNWYQQKPDGTVKLLIFYSSNLHSGVPSRFSGGGSGTDYSLTISNLEPEDIATYFCHQYSKLPWTFGGGTKLEIK |
| – | – | – | 59.7 | 0.00278 | 75400 | 55.8 | 0.00144 | 37700 | hAb 3: fully humanized mR24 based on framework shuffle (SEQ ID NOs: 32 and 33, VL framework V1-12 and VH framework V3-7) (antibody, V domains shown) VH: EVQLVESGGGLVQPGGSLRLSCAASGFTFSNFGMHWVRQAPGKGLEWVAYISSGGSSINYADTVKGRFTISRDNAKNSLYLQMNSLRAEDTAVYYCARGGTGTRSLYYFDYWGQGTLVTVSS VL: DIQMTQSPSSVSASVGDRVTITCRASQDIGNFLNWYQQKPGKAPKLLIYYTSRLQSGVPSRFSGSGSGTDFTLTISSLQPEDFATYYCQQGKTLPYTFGGGTKVEIK |
| – | – | – | 31.1 | 0.00111 | 44600 | 28.9 | 0.00136 | 59700 | hAb 21: fully humanized mR24 based on framework shuffle (SEQ ID NOs: 30 and 31, VL framework V3-11 and VH framework V3-7) (antibody, V domains shown) VH: EVQLVESGGGLVQPGGSLRLSCAASGFTFSNFGMHWVRQAPGKGLEWVAYISSGGSSINYADTVKGRFTISRDNAKNSLYLQMNSLRAEDTAVYYCARGGTGTRSLYYFDYWGQGTLVTVSS VL: EIVLTQSPATLSLSPGERATLSCRASQDIGNFLNWYQQKPGQAPRLLIYYTSRLQSGIPARFSGSGSGTDFTLTISSLEPEDFAVYYCQQGKTLPYTFGGGTKVEIK |
